Test results published in patent US8460910B2 (Illumina Cambridge Limited, priority 2003, dated 2013).

Tested on: 3′ modified nucleotide
Experiment: Gel-based incorporation assay of Example 2, two cycles of enzymology on bead-bound 32P-labelled DNA template
Format: biochemical
Conditions: 45° C., 50 mM Tris, pH 8, 4 mM MgSO4, 0.05 (v/v) Tween, 50 μg/ml enzyme, 2 μM 3′ modified nucleotide; second cycle
Procedure: The mutant polymerases were assessed for their ability to incorporate a 3′ blocked nucleotide analogue using a gel-based assay as described in generic form in Example 1. The rates of incorporation of the modified nucleotides were compared to purified forms of related DNA polymerases in both a single round of incorporation and through two rounds of nucleotide incorporation. The DNA template that was used for these experiments was a commercially-synthesised biotinylated oligonucleotide.
The method for two cycles of incorporation involves the binding of the DNA primer-template to streptavidin-coated beads (Dynalbeads). These are prepared as follows: • Resuspend beads in storage pot by pipetting up and down Take 20 μL beads • Wash 3×200 μL TE buffer (10 mM Tris HCl pH 7.5, 1 mM EDTA) Add 50 μL B&W buffer (5 mM Tris HCl, pH 7.5; 1M NaCl, […]) • 25 μL H2O • 25 μL of ^32P-labelled biotin DNA template (final concentration of 100 nM)
The first cycle of enzymatic incorporation is performed on these beads as follows:
Incorporation mix 1 is added to the bead pellet from above.
Reactions are incubated at 45° C. for 15 minutes
The first cycle of enzymology is then deblocked by treatment with tri(carboxyethyl) phosphine (TCEP) as follows:
Add 65 μL TCEP (100 mM) in water and incubate at 65° C. for 15 minutes
After removal of the TE buffer, a second cycle of enzymatic incorporation is then performed by the addition of incorporation mix 2, as follows:
Take 5 μL samples out at ½, 1, 2, 4, 10, 30, 60 mins and add to gel loading buffer with EDTA.
Heat all samples to 95° C. for 10 mins and load 3 μl on a 12% acrylamide gel (Sambrook and Russell, 2001).
Time (mins) to 50% product conversion on second cycle of enzymology at 45° C., 50 mM Tris, pH 8, 4 mM MgSO4, 0.05 (v/v) Tween, 50 μg/ml enzyme, and 2 μM 3′ modified nucleotide. Time to 50% product conversion on first cycle of incorporation shown in parentheses. For other mutants the time to 50% conversion on the first cycle was not measured in these experiments

B1: YST: 9° N DM-derived polymerase with amino acids 408-410 YST (protein, UniProt Q56366 1-775, looked up, variant D141A E143A L408Y Y409S P410T A485L)
DNA polymerase: MILDTDYITENGKPVIRVFKKENGEFKIEYDRTFEPYFYALLKDDSAIEDVKKVTAKRHGTVVKVKRAEKVQKKFLGRPIEVWKLYFNHPQDVPAIRDRIRAHPAVVDIYEYDIPFAKRYLIDKGLIPMEGDEELTMLAFAIATLYHEGEEFGTGPILMISYADGSEARVITWKKIDLPYVDVVSTEKEMIKRFLRVVREKDPDVLITYNGDNFDFAYLKKRCEELGIKFTLGRDGSEPKIQRMGDRFAVEVKGRIHFDLYPVIRRTINLPTYTLEAVYEAVFGKPKEKVYAEEIAQAWESGEGLERVARYSMEDAKVTYELGREFFPMEAQLSRLIGQSLWDVSRSSTGNLVEWFLLRKAYKRNELAPNKPDERELARRRGGYAGGYVKEPERGLWDNIVYLDFRSYSTSIIITHNVSPDTLNREGCKEYDVAPEVGHKFCKDFPGFIPSLLGDLLEERQKIKRKMKATVDPLEKKLLDYRQRLIKILANSFYGYYGYAKARWYCKECAESVTAWGREYIEMVIRELEEKFGFKVLYADTDGLHATIPGADAETVKKKAKEFLKYINPKLPGLLELEYEGFYVRGFFVTKKKYAVIDEEGKITTRGLEIVRRDWSEIAKETQARVLEAILKHGDVEEAVRIVKEVTEKLSKYEVPPEKLVIHEQITRDLRDYKATGPHVAVAKRLAARGVKIRPGTVISYIVLKGSGRIGDRAIPADEFDPTKHRYDAEYYIENQVLPAVERILKAFGYRKEDLRYQKTKQVGLGAWLKVKGKK
- Time (mins) to 50% product conversion on second cycle of enzymology: 2.1 min

B2: CST: 9° N DM-derived polymerase with amino acids 408-410 CST (protein, UniProt Q56366 1-775, looked up, variant D141A E143A L408C Y409S P410T A485L)
DNA polymerase: MILDTDYITENGKPVIRVFKKENGEFKIEYDRTFEPYFYALLKDDSAIEDVKKVTAKRHGTVVKVKRAEKVQKKFLGRPIEVWKLYFNHPQDVPAIRDRIRAHPAVVDIYEYDIPFAKRYLIDKGLIPMEGDEELTMLAFAIATLYHEGEEFGTGPILMISYADGSEARVITWKKIDLPYVDVVSTEKEMIKRFLRVVREKDPDVLITYNGDNFDFAYLKKRCEELGIKFTLGRDGSEPKIQRMGDRFAVEVKGRIHFDLYPVIRRTINLPTYTLEAVYEAVFGKPKEKVYAEEIAQAWESGEGLERVARYSMEDAKVTYELGREFFPMEAQLSRLIGQSLWDVSRSSTGNLVEWFLLRKAYKRNELAPNKPDERELARRRGGYAGGYVKEPERGLWDNIVYLDFRSCSTSIIITHNVSPDTLNREGCKEYDVAPEVGHKFCKDFPGFIPSLLGDLLEERQKIKRKMKATVDPLEKKLLDYRQRLIKILANSFYGYYGYAKARWYCKECAESVTAWGREYIEMVIRELEEKFGFKVLYADTDGLHATIPGADAETVKKKAKEFLKYINPKLPGLLELEYEGFYVRGFFVTKKKYAVIDEEGKITTRGLEIVRRDWSEIAKETQARVLEAILKHGDVEEAVRIVKEVTEKLSKYEVPPEKLVIHEQITRDLRDYKATGPHVAVAKRLAARGVKIRPGTVISYIVLKGSGRIGDRAIPADEFDPTKHRYDAEYYIENQVLPAVERILKAFGYRKEDLRYQKTKQVGLGAWLKVKGKK
- Time (mins) to 50% product conversion on second cycle of enzymology: 19.5 min
